Results from patent US20220289850 (published 2022).
Where “and” joins values, the source holds several entries; their conditions need not be identical. Equal values may be shown once.

T1: mouse integrin avb8 (mouse)
T1 chain 1: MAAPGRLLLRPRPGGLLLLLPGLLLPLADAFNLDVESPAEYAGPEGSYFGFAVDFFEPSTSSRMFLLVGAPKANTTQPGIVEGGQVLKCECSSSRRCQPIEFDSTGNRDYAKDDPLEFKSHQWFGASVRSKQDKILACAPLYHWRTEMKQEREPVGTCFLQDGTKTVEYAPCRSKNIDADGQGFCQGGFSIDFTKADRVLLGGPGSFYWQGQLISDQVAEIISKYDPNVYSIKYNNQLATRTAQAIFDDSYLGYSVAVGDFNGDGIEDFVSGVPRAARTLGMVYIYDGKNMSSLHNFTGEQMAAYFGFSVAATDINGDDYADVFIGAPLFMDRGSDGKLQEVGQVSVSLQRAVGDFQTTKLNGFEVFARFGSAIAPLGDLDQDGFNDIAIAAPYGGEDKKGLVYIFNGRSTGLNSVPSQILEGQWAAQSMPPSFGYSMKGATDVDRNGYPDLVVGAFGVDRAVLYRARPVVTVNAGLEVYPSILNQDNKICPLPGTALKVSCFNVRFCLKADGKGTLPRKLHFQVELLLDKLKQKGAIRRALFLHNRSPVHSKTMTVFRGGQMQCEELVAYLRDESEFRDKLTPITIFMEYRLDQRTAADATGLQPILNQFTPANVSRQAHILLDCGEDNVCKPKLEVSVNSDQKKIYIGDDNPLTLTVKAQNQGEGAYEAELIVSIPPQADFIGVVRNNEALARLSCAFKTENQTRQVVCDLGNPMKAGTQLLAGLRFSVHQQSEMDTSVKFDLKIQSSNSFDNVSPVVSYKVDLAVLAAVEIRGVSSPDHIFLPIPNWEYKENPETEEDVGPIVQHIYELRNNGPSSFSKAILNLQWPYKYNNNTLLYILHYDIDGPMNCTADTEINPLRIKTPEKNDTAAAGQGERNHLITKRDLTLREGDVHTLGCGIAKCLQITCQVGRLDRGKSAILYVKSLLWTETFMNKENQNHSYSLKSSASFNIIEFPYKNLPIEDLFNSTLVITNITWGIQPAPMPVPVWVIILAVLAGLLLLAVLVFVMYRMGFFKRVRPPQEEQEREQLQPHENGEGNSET
T1 chain 2: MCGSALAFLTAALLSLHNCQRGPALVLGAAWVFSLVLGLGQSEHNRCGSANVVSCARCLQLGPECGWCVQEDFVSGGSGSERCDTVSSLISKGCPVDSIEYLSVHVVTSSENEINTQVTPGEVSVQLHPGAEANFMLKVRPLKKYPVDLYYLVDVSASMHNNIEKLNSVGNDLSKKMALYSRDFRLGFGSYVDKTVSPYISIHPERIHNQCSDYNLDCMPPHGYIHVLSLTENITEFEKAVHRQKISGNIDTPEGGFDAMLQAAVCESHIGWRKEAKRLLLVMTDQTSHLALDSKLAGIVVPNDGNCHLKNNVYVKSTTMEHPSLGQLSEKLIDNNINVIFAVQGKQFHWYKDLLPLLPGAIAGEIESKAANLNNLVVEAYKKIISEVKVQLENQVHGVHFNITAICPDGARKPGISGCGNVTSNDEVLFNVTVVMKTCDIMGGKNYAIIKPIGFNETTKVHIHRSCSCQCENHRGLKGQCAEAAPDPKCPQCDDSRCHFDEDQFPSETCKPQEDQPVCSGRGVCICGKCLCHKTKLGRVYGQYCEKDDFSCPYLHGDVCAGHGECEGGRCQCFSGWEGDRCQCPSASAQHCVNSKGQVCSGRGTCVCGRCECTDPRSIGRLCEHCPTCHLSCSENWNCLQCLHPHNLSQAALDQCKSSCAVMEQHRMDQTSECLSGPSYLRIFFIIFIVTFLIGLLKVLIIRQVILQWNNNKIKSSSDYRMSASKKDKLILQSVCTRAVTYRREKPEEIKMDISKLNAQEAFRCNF


Target: T1, mouse integrin avb8
Assay: SPR 25C

Kd	Binder
< 0.1 nM and 0.137 nM	ADWA11 VH05/VK01 (VH05-2_VK01) Fab (antibody, V domains shown) VH: EVQLVESGGGLVQPGGSLRLSCAASGFNIKDYYMNWVRQAPGKGLEWVGWIDPDNGNTIYDPKFQGRFTISADTSKNSAYLQMNSLRAEDTAVYYCARRLLMDYWGQGTLVTVSS VL: DIQMTQSPSSLSASVGDRVTITCRSTKSLLHFNGNTYLFWYQQKPGKAPKRLIYYMSNLASGVPSRFSGSGSGTDFTLTISSLQPEDFATYYCMQSLEYPFTFGQGTKVEIK
< 0.2 nM	ADWA11 2.4 Fab (antibody, V domains shown) VH: EVQLVESGGGLVQPGGSLRLSCAASGFNIKDYYMNWVRQAPGKGLEWVGWIDPDQGNTIYEPKFQGRFTISADTSKNSAYLQMNSLRAEDTAVYYCARRLLMDYWGQGTLVTVSS VL: DIQMTQSPSSLSASVGDRVTITCRSTKSLSHFNGNTYLFWYQQKPGKAPKRLIYYMSSLASGVPSRFSGSGSGTDFTLTISSLQPEDFATYYCQQSLEYPFTFGGGTKVEIK
0.489 nM	Mouse hybridoma ADWA-11 Fab (antibody, V domains shown) VH: EVQLQQSGAELVRPGAFVKLSCKASGFNIKDYYMNWVLQRPEQGLEWIGWIDPDNGNTIYDPKFQGKASITADTSSNTAYLQLSSLTSEDTAVYYCARRLLMDYWGQGTSVTVSS VL: DIVMTQAAPSVPVTPGESVSISCRSTKSLLHFNGNTYLFWFLQRPGQSPQRLIYYMSNLASGVPDRFSGRGSGTDFTLRISRVEAEDVGVYYCMQSLEYPFTFGTGTKLEIK
